Data reported in US20100135997A1 (MEDGENE, published 2010).

target: T1, HLA-A*0201 loaded with the Carcinoembryonic antigen (CEA)-derived … peptide (biotin on the C-terminal biotinylation tag); assay: Biacore SPR, biotinylated pMHC immobilised on streptavidin
T1 construct: Soluble, biotinylated, immobilised on a streptavidin chip

| Kd | koff | Binder |
| --- | --- | --- |
| ~6 µM | 2.4 s⁻¹ | soluble truncated variant of the Wild-Type ILT-2 molecule (domains D1 and D2) (receptor, the entry carries the N-terminal Met used for bacterial expression; also called soluble wild-type ILT-2; soluble variant of wild-type ILT-2) MGHLPKPTLWAEPGSVITQGSPVTLRCQGGQETQEYRLYREKKTAPWITRIPQELVKKGQFPIPSITWEHAGRYRCYYGSDTAGRSESSDPLELVVTGAYIKPTLSAQPSPVVNSGGNVTLQCDSQVAFDGFILCKEGEDEHPQCLNSQPHARGSSRAIFSVGPVSPSRRWWYRCYAYDSNSPYEWSLPSDLLELLVL |

target: T1, HLA-A*0201 loaded with the …; assay: Biacore SPR
Procedure, shortened: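 pMHC complexes were immobilised in SPR flow cells through biotin-tag binding. Soluble ILT-like molecule was passed over the surfaces at constant flow rate and response recorded in RU for affinity and kinetic analysis.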

| Kd | koff | Binder |
| --- | --- | --- |
| ≤ 1 µM | ≤ 2 s⁻¹ | SEQ ID NO 60 (receptor, mutated soluble two domain ILT-2) MGHLPKPTLWAEPGSVITMDQPVTLRCQGGQETQQYRLYREKKTAPWITRIPQELVKKGQFPIPSITWEHAGRYRCYYGSDTRQWSASSDPLELVVTGVYIKPTLSAQPSPVVNSGGNVTLQCDSQVAFDGFILCKEGEDDHPQCLNSQPHARGSSRAIFSVGPVSPSRRWRYRCYAYDSNSPYEWTRGSDLLELDVDG |
| ≤ 1 µM | ≤ 2 s⁻¹ | SEQ ID NO 107 (receptor, mutated soluble two domain ILT-2) MGHLPKPTLWAEPGSVITMDQPVTLRCQGGQETQEYRLYREKKTAPWITRIPQELVKKGQFPIPSITWEHAGRYRCIGRSQTSQWSASSDPLELVVTGIYLAPTLSAQPSPVVNSGGNVTLQCDSQVAFDGFILCKEGEDEHPQCLNSQPHARGSSRAIFSVGPVSPSRRWWYRCYAYDSNSPYEWSLPSDLLELLVL |
| ≤ 1 µM | ≤ 2 s⁻¹ | SEQ ID NO 115 (receptor, mutated soluble two domain ILT-2) MHLPKPTLWAEPGSVITLRSPVTLRCQGGQETQEYRLYREKKTAPWITRIPQELVKKGQFPIPSITWEHAGRYRCYYGSDTSQWSASSDPLELVVTGVYIKPTLSAQPSPVVNSGGNVTLQCDSQVAFDGFILCKEGEDEHPQCLNSQPHARGSSRAIFSVGPVSPSRRWWYRCYAYDSNSPYEWSLPSDLLELDVDG |
| ≤ 1 µM | ≤ 2 s⁻¹ | SEQ ID NO 124 (receptor, mutated soluble two domain ILT-2) MHLPKPTLWAEPGSVITMDQPVTLRCQGGQETQEYRLYREKKTAPWITRIPQELVKKGQFPIPSITWEHAGRYRCYYGSDTSQWSASSDPLELVVTGVYIKPTLSAQPSPVVNSGGNVTLQCDSQVAFDGFILCKEGEDEHPQCDNSQPHARGSSRAIFSVGPVSPSRRWWYRCYAYDSNSPYEWSLPSDLLELDVDG |
| ≤ 1 µM | ≤ 2 s⁻¹ | SEQ ID NO 118 (receptor, mutated soluble two domain ILT-2) MHLPKPTLWAEPGSVITMDQPVTLRCQGGQETQEYRLYREKKTAPWITRIPQELVKKGQFPIPSITWEHAGRYRCYYGTQTAGRSESSDPLELVVTGVYIKPTLSAQPSPVVNSGGNVTLQCDSQVAFDGFILCKEGEDEHPQCLNSQPHARGSSRAIFSVGPVSPSRRWWYRCYAYDSNSPYEWSLPSDLLELDVDG |
| ≤ 1 µM | ≤ 2 s⁻¹ | SEQ ID NO 119 (receptor, mutated soluble two domain ILT-2) MHLPKPTLWAEPGSVITMDQPVTLRCQGGQETQEYRLYREKKTAPWITRIPQELVKKGQFPIPSITWEHAGRYRCMQYTLTAGRSESSDPLELVVTGVYIKPTLSAQPSPVVNSGGNVTLQCDSQVAFDGFILCKEGEDEHPQCLNSQPHARGSSRAIFSVGPVSPSRRWWYRCYAYDSNSPYEWSLPSDLLELDVDG |
| ≤ 1 µM | ≤ 2 s⁻¹ | SEQ ID NO 127 (receptor, mutated soluble two domain ILT-2) MHLPKPTLWAEPGSVITMDQPVTLRCQGGQETQEYRLYREKKTAPWITRIPQELVKKGQFPIPSITWEHAGRYRCYYGSDTSQWSASSDPLELVVTGVYIKPTLSAQPSPVVNSGGNVTLQCDSQVAFDGFILSKEGEDEHPQSLNSQPHARGSSRAIFSVGPVSPSRRWWYRCYAYDSNSPYEWSLPSDLLELDVDG |
| ≤ 1 µM | ≤ 2 s⁻¹ | SEQ ID NO 126 (receptor, mutated soluble two domain ILT-2) MHLPKPTLWAEPGSVITMDQPVTLRCQGGQETQEYRLYREKKTAPWITRIPQELVKKGQFPIPSITWEHAGRYRCYYGSDTSQWSASSDPLELVVTGVYIKPTLSAQPSPVVNSGGNVTLQCDSQVAFDGFILCKEGEDEHPQCLNSQPHARGSSRAIFSVGPVSPSRRWWYRCYAYDSNSPYEWSDPSDLLELDVDG |
| ≤ 1 µM | ≤ 2 s⁻¹ | SEQ ID NO 121 (receptor, mutated soluble two domain ILT-2) MHLPKPTLWAEPGSVITMDQPVTLRCQGGQETQEYRLYREKKTAPWITRIPQELVKKGQFPIPSITWEHAGRYRCYYGGQEGARSESSDPLELVVTGVYIKPTLSAQPSPVVNSGGNVTLQCDSQVAFDGFILCKEGEDEHPQCLNSQPHARGSSRAIFSVGPVSPSRRWWYRCYAYDSNSPYEWSLPSDLLELDVDG |

Second part, the binder before the results:

| Binder | Kd | koff |
| --- | --- | --- |
| SEQ ID NO 67 (receptor, mutated soluble two domain ILT-2) MHLPKPTLWAEPGSVITMDQPVTLRCQGGQETQEYRLYREKKTAPWITRIPQELVKKGQFPIPSITWEHAGRYRCYYGSDTSQWSASSDPLELVVTGVYIKPTLSAQPSPVVNSGGNVTLQCDSQVAFDGFILCKEGEDEHPQCLNSQPHARGSSRAIFSVGPVSPSRRWWYRCYAYDSNSPYEWSLPSDLLELDVDGC | ≤ 1 µM | ≤ 2 s⁻¹ |
| SEQ ID NO 108 (receptor, mutated soluble two domain ILT-2) MGHLPKPTLWAEPGSVITLGQPVTLRCQGGQETQEYRLYREKKTAPWITRIPQELVKKGQFPIPSITWEHAGRYRCIGRSQTSQWSASSDPLELVVTGIYLAPTLSAQPSPVVNSGGNVTLQCDSQVAFDGFILCKEGEDEHPQCLNSQPHARGSSRAIFSVGPVSPSRRWWYRCYAYDSNSPYEWSLPSDLLELLVL | ≤ 1 µM | ≤ 2 s⁻¹ |
| SEQ ID NO 109 (receptor, mutated soluble two domain ILT-2) MHLPKPTLWAEPGSVITMDQPVTLRCQGGQETQEYRLYREKKTAPWITRIPQELVKKGQFPIPSITWEHAGRYRCYYGSDTSQWSASSDPLELVVTGVYIKPTLSAQPSPVVNSGGNVTLQCDSQVAFDGFILCKEGEDEHPQCLNSQPHARGSSRAIFSVGPVSPSRRWWYRCYAYDSNSPYEWSLPSDLLELDVDG | ≤ 1 µM | ≤ 2 s⁻¹ |
| SEQ ID NO 116 (receptor, mutated soluble two domain ILT-2) MHLPKPTLWAEPGSVITLQSPVTLRCQGGQETQEYRLYREKKTAPWITRIPQELVKKGQFPIPSITWEHAGRYRCYYGSDTSQWSASSDPLELVVTGVYIKPTLSAQPSPVVNSGGNVTLQCDSQVAFDGFILCKEGEDEHPQCLNSQPHARGSSRAIFSVGPVSPSRRWWYRCYAYDSNSPYEWSLPSDLLELDVDG | ≤ 1 µM | ≤ 2 s⁻¹ |
| SEQ ID NO 120 (receptor, mutated soluble two domain ILT-2) MHLPKPTLWAEPGSVITMDQPVTLRCQGGQETQEYRLYREKKTAPWITRIPQELVKKGQFPIPSITWEHAGRYRCVIQRGTAGRSESSDPLELVVTGVYIKPTLSAQPSPVVNSGGNVTLQCDSQVAFDGFILCKEGEDEHPQCLNSQPHARGSSRAIFSVGPVSPSRRWWYRCYAYDSNSPYEWSLPSDLLELDVDG | ≤ 1 µM | ≤ 2 s⁻¹ |
| SEQ ID NO 125 (receptor, mutated soluble two domain ILT-2) MHLPKPTLWAEPGSVITMDQPVTLRCQGGQETQEYRLYREKKTAPWITRIPQELVKKGQFPIPSITWEHAGRYRCYYGSDTSQWSASSDPLELVVTGVYIKPTLSAQPSPVVNSGGNVTLQCDSQVAFDGFILCKEGEDEHPQCLNSQPHARGSSRAEFSVGPVSPSRRWWYRCYAYDSNSPYEWSLPSDLLELDVDG | ≤ 1 µM | ≤ 2 s⁻¹ |
| SEQ ID NO 117 (receptor, mutated soluble two domain ILT-2) MHLPKPTLWAEPGSVITLESPVTLRCQGGQETQEYRLYREKKTAPWITRIPQELVKKGQFPIPSITWEHAGRYRCYYGSDTSQWSASSDPLELVVTGVYIKPTLSAQPSPVVNSGGNVTLQCDSQVAFDGFILCKEGEDEHPQCLNSQPHARGSSRAIFSVGPVSPSRRWWYRCYAYDSNSPYEWSLPSDLLELDVDG | ≤ 1 µM | ≤ 2 s⁻¹ |
| SEQ ID NO 122 (receptor, mutated soluble two domain ILT-2) MHLPKPTLWAEPGSVITMDQPVTLRCQGGQETQEYRLYREKKTAPWITRIPQELVKKGQFPIPSITWEHAGRYRCYYGTQTSQWSASSDPLELVVTGVYIKPTLSAQPSPVVNSGGNVTLQCDSQVAFDGFILCKEGEDEHPQCLNSQPHARGSSRAIFSVGPVSPSRRWWYRCYAYDSNSPYEWSLPSDLLELDVDG | ≤ 1 µM | ≤ 2 s⁻¹ |
